Results: patent US20260274985A1 (MYTHIC THERAPEUTICS, published 2026)

T1: Human TROP2 Protein, His Tag (Acro Biosystems) (human, UniProt P09758 27-274)
T1 construct: Soluble analyte of the Octet assay; also called TACSTD2; not shown: His tag
T1 sequence (looked up): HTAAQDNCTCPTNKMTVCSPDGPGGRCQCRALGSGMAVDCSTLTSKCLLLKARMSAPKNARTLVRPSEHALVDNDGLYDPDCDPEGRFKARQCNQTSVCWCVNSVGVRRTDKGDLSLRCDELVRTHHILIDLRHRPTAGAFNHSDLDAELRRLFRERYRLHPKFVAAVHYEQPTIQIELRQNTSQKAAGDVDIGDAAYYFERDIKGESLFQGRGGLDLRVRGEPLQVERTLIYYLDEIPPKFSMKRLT


Target: T1, Human TROP2 Protein, His Tag (Acro …)
Assay: BLI (Octet) [1/2]

| Binder | binding result |
| --- | --- |
| MYT13226 (antibody, V domains shown, Sacituzumab HC-LC pairing variant; IgG) VH: QVQLQQSGSELKKPGASVKVSCKASGYTFTNYGMNWVKQAPGQGLKWMGWINTYTGEPTHTDDFKGRFAFSLDTSVSTAYLQISSLKADDTAVYFCARGGFGSSYWYFDVWGQGSLVTVSS VL: DIQLTQSPSSLSASVGDRVSITCKASQDVSIAVAWYQQKPGKAPKLLIYSASYRYTGVPDRFSGSGSGTDFTLTISSLQPEDFAVYYCQQHYHTPLTFGAGTKVEIK | binds |
| MYT13235 (antibody, V domains shown, Sacituzumab HC-LC pairing variant; IgG) VH: QVQLQQSGSELKKPGASVKVSCKASGYTFTNYGMNWVKQAPGQGLKWMGWINTYTGEPTYTHDFKGRFAFSLDTSVSTAYLQISSLKADDTAVYFCARGGFGSSYWYFDVWGQGSLVTVSS VL: DIQLTQSPSSLSASVGDRVSITCKASQDVSIAVAWYQQKPGKAPKLLIYSHHYRYTGVPDRFSGSGSGTDFTLTISSLQPEDFAVYYCQQHYITPLTFGAGTKVEIK | binds |
| MYT13229 (antibody, V domains shown, Sacituzumab HC-LC pairing variant; IgG) VH: QVQLQQSGSELKKPGASVKVSCKASGYTFTNYGMNWVKQAPGQGLKWMGWINTYTGEPTYTDDHKGRFAFSLDTSVSTAYLQISSLKADDTAVYFCARGGFGSSYWYFDVWGQGSLVTVSS VL: DIQLTQSPSSLSASVGDRVSITCKASQDVSIAVAWYQQKPGKAPKLLIYSASYRYTGVPDRFSGSGSGTDFTLTISSLQPEDFAVYYCQQHYHTPLTFGAGTKVEIK | binds |
| MYT13230 (antibody, V domains shown, Sacituzumab HC-LC pairing variant; IgG) VH: QVQLQQSGSELKKPGASVKVSCKASGYTFTNYGMNWVKQAPGQGLKWMGWINTYTGEPTYTDDFHGRFAFSLDTSVSTAYLQISSLKADDTAVYFCARGGFGSSYWYFDVWGQGSLVTVSS VL: DIQLTQSPSSLSASVGDRVSITCKASQDVSIAVAWYQQKPGKAPKLLIYSASYRYTGVPDRFSGSGSGTDFTLTISSLQPEDFAVYYCQQHYHTPLTFGAGTKVEIK | binds |

Second part, the binder after the results:

| binding result | Binder |
| --- | --- |
| binds | MYT13227 (antibody, V domains shown, Sacituzumab HC-LC pairing variant; IgG) VH: QVQLQQSGSELKKPGASVKVSCKASGYTFTNYGMNWVKQAPGQGLKWMGWINTYTGEPTYTHDFKGRFAFSLDTSVSTAYLQISSLKADDTAVYFCARGGFGSSYWYFDVWGQGSLVTVSS VL: DIQLTQSPSSLSASVGDRVSITCKASQDVSIAVAWYQQKPGKAPKLLIYSASYRYTGVPDRFSGSGSGTDFTLTISSLQPEDFAVYYCQQHYHTPLTFGAGTKVEIK |
| binds | MYT13231 (antibody, V domains shown, Sacituzumab HC-LC pairing variant; IgG) VH: QVQLQQSGSELKKPGASVKVSCKASGYTFTNYGMNWVKQAPGQGLKWMGWINTYTGEPTYTDDFKHRFAFSLDTSVSTAYLQISSLKADDTAVYFCARGGFGSSYWYFDVWGQGSLVTVSS VL: DIQLTQSPSSLSASVGDRVSITCKASQDVSIAVAWYQQKPGKAPKLLIYSASYRYTGVPDRFSGSGSGTDFTLTISSLQPEDFAVYYCQQHYHTPLTFGAGTKVEIK |
| binds | MYT13228 (antibody, V domains shown, Sacituzumab HC-LC pairing variant; IgG) VH: QVQLQQSGSELKKPGASVKVSCKASGYTFTNYGMNWVKQAPGQGLKWMGWINTYTGEPTYTDHFKGRFAFSLDTSVSTAYLQISSLKADDTAVYFCARGGFGSSYWYFDVWGQGSLVTVSS VL: DIQLTQSPSSLSASVGDRVSITCKASQDVSIAVAWYQQKPGKAPKLLIYSASYRYTGVPDRFSGSGSGTDFTLTISSLQPEDFAVYYCQQHYHTPLTFGAGTKVEIK |
| binds | MYT13234 (antibody, V domains shown, Sacituzumab HC-LC pairing variant; IgG) VH: QVQLQQSGSELKKPGASVKVSCKASGYTFTNYGMNWVKQAPGQGLKWMGWINTYTGEPTHTDDFKGRFAFSLDTSVSTAYLQISSLKADDTAVYFCARGGFGSSYWYFDVWGQGSLVTVSS VL: DIQLTQSPSSLSASVGDRVSITCKASQDVSIAVAWYQQKPGKAPKLLIYSHHYRYTGVPDRFSGSGSGTDFTLTISSLQPEDFAVYYCQQHYITPLTFGAGTKVEIK |
